Common to all, as to assay: cell-based or functional assay
Test [1] addresses human GLP-1 receptor (human, UniProt P43220 24-463).
Test [2] deals with T1, human GIP receptor (human, UniProt P48546 22-466).
T1 sequence (looked up): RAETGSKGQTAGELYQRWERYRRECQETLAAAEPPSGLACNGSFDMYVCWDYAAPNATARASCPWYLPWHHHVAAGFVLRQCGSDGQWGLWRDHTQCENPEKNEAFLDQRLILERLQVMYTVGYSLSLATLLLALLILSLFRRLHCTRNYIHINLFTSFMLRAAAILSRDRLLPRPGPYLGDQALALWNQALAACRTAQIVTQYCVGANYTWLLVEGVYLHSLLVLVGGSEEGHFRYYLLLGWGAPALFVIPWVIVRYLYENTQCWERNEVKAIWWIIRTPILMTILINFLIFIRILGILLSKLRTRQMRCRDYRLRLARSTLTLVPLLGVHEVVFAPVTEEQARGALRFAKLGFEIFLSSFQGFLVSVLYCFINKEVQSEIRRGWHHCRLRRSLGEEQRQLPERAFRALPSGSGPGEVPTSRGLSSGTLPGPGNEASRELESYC

Test [3] has as its target human glucagon receptor (human, UniProt P47871 26-477).

*1 amine or outer side, *2 acyl side, *3 side chain or, on linkers, in order; H or OH if unused. Where no end group is shown, it is not given here. Side-chain parts run from the residue outwards. [ ]: non-standard residue; d: D form. The star is where a group is joined. γGlu = O=C(O)[C@H](CCC(=O)[*:2])N[*:1]; Stearoyl = CCCCCCCCCCCCCCCCCC(=O)*; Palmitoyl = CCCCCCCCCCCCCCCC(=O)*; Aib = CC(C)(N)C(=O)O

human glucagon receptor, sequence (P47871 26-477): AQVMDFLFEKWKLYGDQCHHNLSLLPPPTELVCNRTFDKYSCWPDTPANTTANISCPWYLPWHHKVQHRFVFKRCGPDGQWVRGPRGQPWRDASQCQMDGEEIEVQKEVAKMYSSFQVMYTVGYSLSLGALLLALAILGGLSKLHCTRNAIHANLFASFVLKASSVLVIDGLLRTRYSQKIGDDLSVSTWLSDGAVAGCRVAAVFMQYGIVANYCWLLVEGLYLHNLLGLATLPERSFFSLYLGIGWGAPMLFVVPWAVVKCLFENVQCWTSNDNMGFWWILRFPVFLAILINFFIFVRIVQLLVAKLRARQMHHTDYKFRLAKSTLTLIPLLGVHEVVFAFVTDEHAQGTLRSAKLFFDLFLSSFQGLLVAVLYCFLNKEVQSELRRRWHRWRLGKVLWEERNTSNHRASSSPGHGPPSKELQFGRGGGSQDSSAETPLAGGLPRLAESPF

B1: exendin-4 peptide analogue SEQ ID NO: 26 (peptide)
peptide: Y[Aib]QGTFTSDLSIQK([γGlu-Palmitoyl])EKRAV[Aib]EFIEWLKAGGPSSGAPPPS-NH2
modifications: N-terminus assumed
SMILES: CCCCCCCCCCCCCCCC(=O)N[C@@H](CCC(=O)NCCCC[C@H](NC(=O)[C@H](CCC(N)=O)NC(=O)[C@@H](NC(=O)[C@H](CO)NC(=O)[C@H](CC(C)C)NC(=O)[C@H](CC(=O)O)NC(=O)[C@H](CO)NC(=O)[C@@H](NC(=O)[C@H](Cc1ccccc1)NC(=O)[C@@H](NC(=O)CNC(=O)[C@H](CCC(N)=O)NC(=O)C(C)(C)NC(=O)[C@@H](N)Cc1ccc(O)cc1)[C@@H](C)O)[C@@H](C)O)[C@@H](C)CC)C(=O)N[C@@H](CCC(=O)O)C(=O)N[C@@H](CCCCN)C(=O)N[C@@H](CCCNC(=N)N)C(=O)N[C@@H](C)C(=O)N[C@H](C(=O)NC(C)(C)C(=O)N[C@@H](CCC(=O)O)C(=O)N[C@@H](Cc1ccccc1)C(=O)N[C@H](C(=O)N[C@@H](CCC(=O)O)C(=O)N[C@@H](Cc1c[nH]c2ccccc12)C(=O)N[C@@H](CC(C)C)C(=O)N[C@@H](CCCCN)C(=O)N[C@@H](C)C(=O)NCC(=O)NCC(=O)N1CCC[C@H]1C(=O)N[C@@H](CO)C(=O)N[C@@H](CO)C(=O)NCC(=O)N[C@@H](C)C(=O)N1CCC[C@H]1C(=O)N1CCC[C@H]1C(=O)N1CCC[C@H]1C(=O)N[C@@H](CO)C(N)=O)[C@@H](C)CC)C(C)C)C(=O)O
Consider B1, for which the “EC50 hGLP-1 R” value in test [1] was found to be 0.0176 nM. Besides, the “EC50 hGIP R” value in test [2] was found to be 0.0053 nM. Besides, the “EC50 hGLUC R” value in test [3] came to 0.3 nM.

B2: exendin-4 peptide analogue SEQ ID NO: 29 (peptide)
peptide: Y[Aib]EGTFTSDLSIQK([γGlu-Stearoyl])ESKAA[Aib]EFIEWLKAGGPSSGAPPPS-NH2
modifications: N-terminus assumed
SMILES: CCCCCCCCCCCCCCCCCC(=O)N[C@@H](CCC(=O)NCCCC[C@H](NC(=O)[C@H](CCC(N)=O)NC(=O)[C@@H](NC(=O)[C@H](CO)NC(=O)[C@H](CC(C)C)NC(=O)[C@H](CC(=O)O)NC(=O)[C@H](CO)NC(=O)[C@@H](NC(=O)[C@H](Cc1ccccc1)NC(=O)[C@@H](NC(=O)CNC(=O)[C@H](CCC(=O)O)NC(=O)C(C)(C)NC(=O)[C@@H](N)Cc1ccc(O)cc1)[C@@H](C)O)[C@@H](C)O)[C@@H](C)CC)C(=O)N[C@@H](CCC(=O)O)C(=O)N[C@@H](CO)C(=O)N[C@@H](CCCCN)C(=O)N[C@@H](C)C(=O)N[C@@H](C)C(=O)NC(C)(C)C(=O)N[C@@H](CCC(=O)O)C(=O)N[C@@H](Cc1ccccc1)C(=O)N[C@H](C(=O)N[C@@H](CCC(=O)O)C(=O)N[C@@H](Cc1c[nH]c2ccccc12)C(=O)N[C@@H](CC(C)C)C(=O)N[C@@H](CCCCN)C(=O)N[C@@H](C)C(=O)NCC(=O)NCC(=O)N1CCC[C@H]1C(=O)N[C@@H](CO)C(=O)N[C@@H](CO)C(=O)NCC(=O)N[C@@H](C)C(=O)N1CCC[C@H]1C(=O)N1CCC[C@H]1C(=O)N1CCC[C@H]1C(=O)N[C@@H](CO)C(N)=O)[C@@H](C)CC)C(=O)O
As to B2, the “EC50 hGLP-1 R” value in test [1] stood at 0.0072 nM. In addition, the “EC50 hGIP R” value in test [2] is 0.013 nM. Also, the “EC50 hGLUC R” value in test [3] worked out at 15 nM.

B3: exendin-4 peptide analogue SEQ ID NO: 28 (peptide)
peptide: Y[Aib]HGTFTSDLSKQK([γGlu-Palmitoyl])EKRAA[Aib]EFIEWLKNTGPSSGAPPPS-NH2
modifications: N-terminus assumed
SMILES: CCCCCCCCCCCCCCCC(=O)N[C@@H](CCC(=O)NCCCC[C@H](NC(=O)[C@H](CCC(N)=O)NC(=O)[C@H](CCCCN)NC(=O)[C@H](CO)NC(=O)[C@H](CC(C)C)NC(=O)[C@H](CC(=O)O)NC(=O)[C@H](CO)NC(=O)[C@@H](NC(=O)[C@H](Cc1ccccc1)NC(=O)[C@@H](NC(=O)CNC(=O)[C@H](Cc1c[nH]cn1)NC(=O)C(C)(C)NC(=O)[C@@H](N)Cc1ccc(O)cc1)[C@@H](C)O)[C@@H](C)O)C(=O)N[C@@H](CCC(=O)O)C(=O)N[C@@H](CCCCN)C(=O)N[C@@H](CCCNC(=N)N)C(=O)N[C@@H](C)C(=O)N[C@@H](C)C(=O)NC(C)(C)C(=O)N[C@@H](CCC(=O)O)C(=O)N[C@@H](Cc1ccccc1)C(=O)N[C@H](C(=O)N[C@@H](CCC(=O)O)C(=O)N[C@@H](Cc1c[nH]c2ccccc12)C(=O)N[C@@H](CC(C)C)C(=O)N[C@@H](CCCCN)C(=O)N[C@@H](CC(N)=O)C(=O)N[C@H](C(=O)NCC(=O)N1CCC[C@H]1C(=O)N[C@@H](CO)C(=O)N[C@@H](CO)C(=O)NCC(=O)N[C@@H](C)C(=O)N1CCC[C@H]1C(=O)N1CCC[C@H]1C(=O)N1CCC[C@H]1C(=O)N[C@@H](CO)C(N)=O)[C@@H](C)O)[C@@H](C)CC)C(=O)O
As to B3, the “EC50 hGLP-1 R” value in test [1] came out at 0.0583 nM. Further, in test [2], the “EC50 hGIP R” value amounted to 0.0368 nM. The “EC50 hGLUC R” value in test [3] was determined as 0.0048 nM.

B4: exendin-4 peptide analogue SEQ ID NO: 27 (peptide)
peptide: Y[Aib]QGTFTSDLSIQK([γGlu-Palmitoyl])DKRAA[Aib]LFIEWLKAGGPSSGAPPPS-NH2
modifications: N-terminus assumed
SMILES: CCCCCCCCCCCCCCCC(=O)N[C@@H](CCC(=O)NCCCC[C@H](NC(=O)[C@H](CCC(N)=O)NC(=O)[C@@H](NC(=O)[C@H](CO)NC(=O)[C@H](CC(C)C)NC(=O)[C@H](CC(=O)O)NC(=O)[C@H](CO)NC(=O)[C@@H](NC(=O)[C@H](Cc1ccccc1)NC(=O)[C@@H](NC(=O)CNC(=O)[C@H](CCC(N)=O)NC(=O)C(C)(C)NC(=O)[C@@H](N)Cc1ccc(O)cc1)[C@@H](C)O)[C@@H](C)O)[C@@H](C)CC)C(=O)N[C@@H](CC(=O)O)C(=O)N[C@@H](CCCCN)C(=O)N[C@@H](CCCNC(=N)N)C(=O)N[C@@H](C)C(=O)N[C@@H](C)C(=O)NC(C)(C)C(=O)N[C@@H](CC(C)C)C(=O)N[C@@H](Cc1ccccc1)C(=O)N[C@H](C(=O)N[C@@H](CCC(=O)O)C(=O)N[C@@H](Cc1c[nH]c2ccccc12)C(=O)N[C@@H](CC(C)C)C(=O)N[C@@H](CCCCN)C(=O)N[C@@H](C)C(=O)NCC(=O)NCC(=O)N1CCC[C@H]1C(=O)N[C@@H](CO)C(=O)N[C@@H](CO)C(=O)NCC(=O)N[C@@H](C)C(=O)N1CCC[C@H]1C(=O)N1CCC[C@H]1C(=O)N1CCC[C@H]1C(=O)N[C@@H](CO)C(N)=O)[C@@H](C)CC)C(=O)O
Consider B4, for which the “EC50 hGLP-1 R” value in test [1] was found to be 0.0147 nM. Also, the “EC50 hGIP R” value in test [2] is 0.0826 nM. Moreover, the “EC50 hGLUC R” value in test [3] was determined as 0.0389 nM.

B5: exendin-4 peptide analogue SEQ ID NO: 24 (peptide)
peptide: Y[Aib]QGTFTSDLSIQK([γGlu-Palmitoyl])EKRAV[Aib]LFIEWLKAGGPSSGAPPPS-NH2
modifications: N-terminus assumed
SMILES: CCCCCCCCCCCCCCCC(=O)N[C@@H](CCC(=O)NCCCC[C@H](NC(=O)[C@H](CCC(N)=O)NC(=O)[C@@H](NC(=O)[C@H](CO)NC(=O)[C@H](CC(C)C)NC(=O)[C@H](CC(=O)O)NC(=O)[C@H](CO)NC(=O)[C@@H](NC(=O)[C@H](Cc1ccccc1)NC(=O)[C@@H](NC(=O)CNC(=O)[C@H](CCC(N)=O)NC(=O)C(C)(C)NC(=O)[C@@H](N)Cc1ccc(O)cc1)[C@@H](C)O)[C@@H](C)O)[C@@H](C)CC)C(=O)N[C@@H](CCC(=O)O)C(=O)N[C@@H](CCCCN)C(=O)N[C@@H](CCCNC(=N)N)C(=O)N[C@@H](C)C(=O)N[C@H](C(=O)NC(C)(C)C(=O)N[C@@H](CC(C)C)C(=O)N[C@@H](Cc1ccccc1)C(=O)N[C@H](C(=O)N[C@@H](CCC(=O)O)C(=O)N[C@@H](Cc1c[nH]c2ccccc12)C(=O)N[C@@H](CC(C)C)C(=O)N[C@@H](CCCCN)C(=O)N[C@@H](C)C(=O)NCC(=O)NCC(=O)N1CCC[C@H]1C(=O)N[C@@H](CO)C(=O)N[C@@H](CO)C(=O)NCC(=O)N[C@@H](C)C(=O)N1CCC[C@H]1C(=O)N1CCC[C@H]1C(=O)N1CCC[C@H]1C(=O)N[C@@H](CO)C(N)=O)[C@@H](C)CC)C(C)C)C(=O)O
As for B5, the “EC50 hGLP-1 R” value in test [1] stood at 0.0192 nM. The “EC50 hGIP R” value in test [2] was 0.0104 nM. In test [3], the “EC50 hGLUC R” value was found to be 0.284 nM.

B6: exendin-4 peptide analogue SEQ ID NO: 25 (peptide)
peptide: Y[Aib]QGTFTSDLSIQK(Palmitoyl)EKRAV[Aib]LFIEWLKAGGPSSGAPPPS-NH2
modifications: N-terminus assumed
SMILES: CCCCCCCCCCCCCCCC(=O)NCCCC[C@H](NC(=O)[C@H](CCC(N)=O)NC(=O)[C@@H](NC(=O)[C@H](CO)NC(=O)[C@H](CC(C)C)NC(=O)[C@H](CC(=O)O)NC(=O)[C@H](CO)NC(=O)[C@@H](NC(=O)[C@H](Cc1ccccc1)NC(=O)[C@@H](NC(=O)CNC(=O)[C@H](CCC(N)=O)NC(=O)C(C)(C)NC(=O)[C@@H](N)Cc1ccc(O)cc1)[C@@H](C)O)[C@@H](C)O)[C@@H](C)CC)C(=O)N[C@@H](CCC(=O)O)C(=O)N[C@@H](CCCCN)C(=O)N[C@@H](CCCNC(=N)N)C(=O)N[C@@H](C)C(=O)N[C@H](C(=O)NC(C)(C)C(=O)N[C@@H](CC(C)C)C(=O)N[C@@H](Cc1ccccc1)C(=O)N[C@H](C(=O)N[C@@H](CCC(=O)O)C(=O)N[C@@H](Cc1c[nH]c2ccccc12)C(=O)N[C@@H](CC(C)C)C(=O)N[C@@H](CCCCN)C(=O)N[C@@H](C)C(=O)NCC(=O)NCC(=O)N1CCC[C@H]1C(=O)N[C@@H](CO)C(=O)N[C@@H](CO)C(=O)NCC(=O)N[C@@H](C)C(=O)N1CCC[C@H]1C(=O)N1CCC[C@H]1C(=O)N1CCC[C@H]1C(=O)N[C@@H](CO)C(N)=O)[C@@H](C)CC)C(C)C
On to B6, for which the “EC50 hGLP-1 R” value in test [1] was found to be 0.037 nM. For the same molecule, the “EC50 hGIP R” value in test [2] was found to be 0.176 nM. Further, the “EC50 hGLUC R” value in test [3] was found to be 2.03 nM.
